Like-named read-outs stand apart in the source and are kept apart here.
B1: A0194020A06: monovalent anti-Kv1.3 Nanobody, family 12 (protein)
VHH: EVQLVESGGGLVQAGGSLGLSCSASGLLFSRNSAGWYRQAPGKRREFVARIRMGGSINYADSVKGRFTVSRDNAKNMMYLQMNDLKPEDTAVYFCSGWREGFYEYWGQGTLVTVSS
modifications: Nanobody sequence
B2: A0194016B04: monovalent anti-Kv1.3 Nanobody, family 12 (protein)
VHH: EVQLVESGGGLVQAGGSLRLSCSASGLLFSVNSAGWYRQAPGKQRDFVARIRSGGSTNYADSVKGRFTISRDKATNTLYLQMNNLKPEDTAVYYCSSWRTEAYEYWGRGTLVTVSS
modifications: Nanobody sequence

Assays:
human Kv1.3 [1] = target: T1, human Kv1.3 (Homo sapiens, UniProt P22001); assay: IonFlux automated patch clamp, Kv1.3-expressing HEK293H cells; type: cell-based; details: monovalent Nanobodies, concentration at which Kv1.3 current is 50%
T1 construct: cell lines stably expressing the full length human Kv1.3 channel
From the text: Periplasmic extracts were electrophysiologically screened for inhibitory effects on the voltage-gated potassium channel Kv1.3 on the IonFlux™ automated Patch Clamp using Kv1.3-expressing HEK293H cells. The complete procedure for evaluating the modulatory effect of periplasmic extracts on human Kv1.3 via electrophysiological recordings is given below.
The IonFlux™ (Molecular Devices) is an automated patch clamp system with integrated Well Plate Microfluidic™ Technology, temperature control and continuous perfusion and voltage clamp. The IonFlux™ 16 has sixteen parallel amplifiers and uses 96-well IonFlux plates conform to the Society for Biomolecular Sciences. This system allows both population and single cell patch clamp.
Extracellular solution contained (in mM): 132 NaCl, 5.4 KCl, 1.8 CaCl2, 0.8 MgCl2, 10 HEPES, 5 glucose (pH 7.2 with NaOH, and 285-290 mOsmolar). Intracellular solution contained (in mM): 40 KF, 100 KCl, 2 MgCl2, 10 HEPES, 5 EGTA (pH 7.45 with CsOH, and 300-315 mOsmolar). These solutions were freshly made, stocked for no longer than a month at 4° C. and filtered prior to use. […]
HEK293H cells stably expressing the human Kv1.3 channel were generated in house. […] Cells were counted (Casy T T, Roche), suspended at 1 million cells/ml, transferred to a new 50 ml conical CELLSTAR® tube and gently shaken at RT for approximately 20 min. […]

CCR7−CD45RA− T cells = type: cell-based, human; details: for IC50: monovalent Nanobodies
From the text: The purified anti-Kv1.3 Nanobodies were characterized in a T Cell-activation assay. Human T Cells were first collected from Buffy Coat blood (from healthy volunteers, Bloodbank Gent) using RosetteSep (StemCell Technologies, #15061) followed by an enrichment on Ficoll-Paque™ PLUS (GE Healthcare #17-1440-03). CCR7−CD45RA− T cells were isolated through negative selection using biotinylated antibodies against CD45RA (BD Bioscience #624008) and CCR7 (BD Bioscence #624009) in addition to the Dynabeads Biotin Binder (Invitrogen #110.47). The purity of the population was afterwards checked with anti-CD3 (eBioscience #12-0037-73); anti-CD8 (BD Bioscience #345775); anti-CD4 (BD Bioscience #345771); anti-CD45RO (BD Bioscience #555493); anti-CD45RA (BD Bioscience #550855); anti-rat IgG (Jackson ImmunoResearch Laboratories #112-116-143); anti-CD19 (BD Bioscience #555413) and anti-Human CCR7 (R&D Systems #MAB197) labeled antibodies in flow cytometric assay.
Isolated CCR7^−CD45RA^− T Cells were then stimulated on anti-CD3 (eBioscience 16-0037-85; 540 ng/ml) coated 96-well plates at a concentration of 200 000 cells/well in absence or presence of dilution series of anti-Kv1.3 antibodies and ShK positive control (Smartox, #08SHK001). After 72 h, IFN-gamma production was measured with anti-human IFNγ antibody capture in ELISA (BD Bioscence #551221) combined with biotinylated anti-human IFNγ (BD Bioscience, #554550) and streptavidin-HRP (Dakocytomation #P0397) as detection (FIG. 11A-11B).
In addition, also CD25 expression was measured in flow cytometry, using an anti-CD25 antibody (BD Pharmingen, cat 557138) (FIG. 11C-11D). […]

human Kv1.3 [2] = target: T1, human Kv1.3; assay: IonWorks Quattro automated perforated patch clamp, Kv1.3-expressing CHL cells; type: cell-based; details: monovalent Nanobodies, sustained current P1
From the text: Selected Nanobodies were electrophysiologically characterized on human Kv1.3 on the IonWorks automated perforated-Patch Clamp using Kv1.3-expressing Chinese Hamster Lung (CHL) cells. The procedure for evaluating the modulatory effect of the purified Nanobodies on human Kv1.3 via electrophysiological recordings is given below.
IonWorks Quattro (Molecular Devices) is a second-generation screening instrument that provides membrane voltage control and provides a direct electrophysiological assay for screening and characterization of compounds. It is an automated, high-throughput planar perforated patch clamp that uses a 384-well PatchPlate™ substrate.
Extracellular solution contained (in mM): 138 NaCl, 2.7 KCl, 0.9 CaCl2, 0.5 MgCl2, 8 Na2HPO4, and 1.5 KH2PO4 (pH 7.3 with NaOH, and 285-290 mOsmolar). The intracellular solution contained (in mM): 100 K-gluconate, 40 KCl, 3.2 EGTA, 5 HEPES and 3.2 MgCl2 (pH 7.3 with KOH, and 300-315 mOsmolar). These solutions were freshly made, stocked for no longer than a month at 4° C. and filtered prior to use. The selected Nanobodies were directly diluted in extracellular solution to obtain a 3 μM sample solution. […]
The basic principles of IonWorks automated patch clamp electrophysiology are described by Schroeder et al. (J Biomol Screen 8(1):50-64, 2003). […] In PPC mode, an ensemble average of the current from up to 64 cells per well was recorded. […]

T1 sequence (P22001 whole entry): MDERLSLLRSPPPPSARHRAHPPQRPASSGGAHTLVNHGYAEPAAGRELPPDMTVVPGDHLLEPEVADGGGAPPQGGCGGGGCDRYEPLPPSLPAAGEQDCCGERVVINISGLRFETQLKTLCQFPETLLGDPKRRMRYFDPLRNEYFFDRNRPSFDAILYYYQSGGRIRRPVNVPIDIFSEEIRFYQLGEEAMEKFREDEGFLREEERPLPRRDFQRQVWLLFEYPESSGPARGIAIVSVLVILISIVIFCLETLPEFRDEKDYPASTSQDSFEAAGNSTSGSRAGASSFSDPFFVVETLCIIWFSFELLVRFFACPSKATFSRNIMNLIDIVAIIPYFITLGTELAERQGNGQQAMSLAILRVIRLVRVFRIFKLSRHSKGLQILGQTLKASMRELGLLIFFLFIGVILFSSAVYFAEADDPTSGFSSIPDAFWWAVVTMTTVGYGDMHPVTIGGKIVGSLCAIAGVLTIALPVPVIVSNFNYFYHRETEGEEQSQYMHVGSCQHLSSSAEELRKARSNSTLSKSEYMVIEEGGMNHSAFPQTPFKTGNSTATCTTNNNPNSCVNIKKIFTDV

Molecule | IC50 (human Kv1.3 [1]) | inhibition of T-cell stimulation (IFNγ, CD25), in words (CCR7−CD45RA− T cells; anti-CD3 stimulation) | IC50 (CCR7−CD45RA− T cells; plate bound anti-CD3, 72 h, read-out: IC50 (in M) IFNγ read out) | IC50 (CCR7−CD45RA− T cells; plate bound anti-CD3, read-out: IC50 (in M) CD25 read out) | IC50 (human Kv1.3 [2])
B1 | 13.4 nM | clearly inhibited | 30 nM | 36 nM | –
B2 | 84 nM | – | – | – | 34 nM

Source: patent US11149086B2, “KV1.3 binding immunoglobulins” (Ablynx N.V., priority 2014, dated 2021)
